The results in this text go back to paper PMC11259132, “Tyrosine phenol-lyase inhibitor quercetin reduces fecal phenol levels in mice” (PNAS Nexus, 2024).

Substrate in the series: N[C@@H](Cc1ccc(O)cc1)C(=O)O
The experiment in a line: enzyme kinetics (Km), phenol by LC-MS. Format: biochemical, Morganella morganii. The settings on record: pyridoxal […]'-phosphate (PLP).

B1: Tyrosine phenol-lyase (TPL) (Morganella morganii subsp. morganii KT) (protein)
chain: MMYPAEPYRIKSVETVSMIPREERIKRMKEAGYNTFLLNSKDVYVDLLTDSGTNAMSDKQWAGMMMGDEAYAGSENFFHLERTVQELFGFKHIVPTHQGRGAENLLSSLAIKPGQYVAGNMYFTTTRYHQEKNGATFIDIVRDEAHDAGLDVKFKGNIDIKKLEKLIAEKGAENIAYICLAVTVNLAGGQPVSMANMREVRQLCDKHGIKVFYDATRCVENAYFIKEQEEGFEDVSIKDIVHEMFSYADGCTMSGKKDCLVNIGGFLCMNDDDMFSAARELVVVYEGMPSYGGLAGRDMEAMAIGLREAMQFEYIEHRVKQVRYLGEKLKAAGVPIVEPVGGHAVFLDARRFCPHLTQDEFPAQSLAASIYMETGVRSMERGIISAGRNKETGDHHRPKLETVRLTIPRRVYTYAHMDLVADGIIKLFKHKEDIKGLKFVYEPKQLRFFTARFDYV
notes: recombinant TPL from M. morganii ssp. morganii (JCM1672), pET-15b
As to B1, the Michaelis constant (Km) (as a rule, the concentration of substrate that gives half-maximal velocity) is listed as 270 µM.
